Test results reported in publication PMC2172684.

biological target: importin α (UniProt P52292); test: ELISA

Substance	Kd [nM]
importin β (304–876) (from UniProt Q14974 304-876) (domain or fragment)	2.5
importin β I178A/F217A/Y255A/I263R (m-N) (from UniProt Q14974 1-876) (natural protein)	1.1
importin β L612D/F688A (m-C) (from UniProt Q14974 1-876) (natural protein)	2.2
importin β m-C (304–876) (from UniProt Q14974 304-876) (domain or fragment)	4.3
importin β m-N/m-C (from UniProt Q14974 1-876) (natural protein)	2.1
wild-type importin β (from UniProt Q14974 1-876) (natural protein)	0.9

biological target: importin α (UniProt P52292); test: ELISA; remark: another data set of the same source

Substance	Kd [nM]
importin β E214A (from UniProt Q14974 1-876) (natural protein)	1.3
importin β I178A (from UniProt Q14974 1-876) (natural protein)	1.1
importin β I178A/F217A/Y255A/I263R (m-N) (from UniProt Q14974 1-876) (natural protein)	1.2
importin β I178D (from UniProt Q14974 1-876) (natural protein)	1.2
importin β I178D/Y255A (from UniProt Q14974 1-876) (natural protein)	1.1
importin β I263R (from UniProt Q14974 1-876) (natural protein)	0.9
wild-type importin β (from UniProt Q14974 1-876) (natural protein)	0.9

biological target: GST–RanGTP (UniProt P62826); test: ELISA

Substance	Kd [nM]
wild-type importin β (from UniProt Q14974 1-876) (natural protein; other documents disagree on this pair)	3.3
